The test system of one series is 인간 혈청 함유 IgG. In kind it is binding.
The target of series [1] is T1, 인간 혈청 알부민(HSA) (Homo sapiens, UniProt P02768).
T1 construct: purchased Novozymes
The series can be described thus: Biacore affinity for albumin of various species: human (Example 7). In kind it is binding. In general terms: SPR reads the build-up and loss of mass on a sensor chip optically.

The target in a further series is T2, DSA (Canis lupus familiaris, UniProt P49822).
T2 construct: purchased MP Biomedicals 55925
T2 sequence (P49822 25-608): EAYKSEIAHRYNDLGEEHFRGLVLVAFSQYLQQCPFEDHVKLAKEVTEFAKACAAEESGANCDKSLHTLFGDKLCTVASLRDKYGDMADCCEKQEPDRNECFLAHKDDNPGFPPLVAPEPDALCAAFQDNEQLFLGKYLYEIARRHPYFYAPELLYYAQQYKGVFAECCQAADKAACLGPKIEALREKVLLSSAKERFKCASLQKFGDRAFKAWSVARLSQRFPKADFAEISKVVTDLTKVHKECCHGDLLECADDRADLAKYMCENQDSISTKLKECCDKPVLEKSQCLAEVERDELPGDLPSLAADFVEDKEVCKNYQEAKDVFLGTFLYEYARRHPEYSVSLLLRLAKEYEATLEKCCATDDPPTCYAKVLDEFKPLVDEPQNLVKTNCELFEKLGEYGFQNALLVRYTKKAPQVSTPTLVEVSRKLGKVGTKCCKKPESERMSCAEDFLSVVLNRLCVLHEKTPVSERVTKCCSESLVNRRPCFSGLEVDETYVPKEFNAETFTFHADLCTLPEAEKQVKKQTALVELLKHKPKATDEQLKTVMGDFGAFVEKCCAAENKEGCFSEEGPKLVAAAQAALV
Briefly: Biacore affinity for albumin of various species: dog (Example 7). It counts as binding, 개. The following applies: range stated over all five species.

For another series, the target named is T3, CSA (Macaca fascicularis, UniProt A2V9Z4).
T3 construct: CSA(cynomolgus 혈청으로부터 얻어 in-house 정제시킴); from tissue; host or cells: cynomolgus serum
T3 sequence (A2V9Z4 25-608): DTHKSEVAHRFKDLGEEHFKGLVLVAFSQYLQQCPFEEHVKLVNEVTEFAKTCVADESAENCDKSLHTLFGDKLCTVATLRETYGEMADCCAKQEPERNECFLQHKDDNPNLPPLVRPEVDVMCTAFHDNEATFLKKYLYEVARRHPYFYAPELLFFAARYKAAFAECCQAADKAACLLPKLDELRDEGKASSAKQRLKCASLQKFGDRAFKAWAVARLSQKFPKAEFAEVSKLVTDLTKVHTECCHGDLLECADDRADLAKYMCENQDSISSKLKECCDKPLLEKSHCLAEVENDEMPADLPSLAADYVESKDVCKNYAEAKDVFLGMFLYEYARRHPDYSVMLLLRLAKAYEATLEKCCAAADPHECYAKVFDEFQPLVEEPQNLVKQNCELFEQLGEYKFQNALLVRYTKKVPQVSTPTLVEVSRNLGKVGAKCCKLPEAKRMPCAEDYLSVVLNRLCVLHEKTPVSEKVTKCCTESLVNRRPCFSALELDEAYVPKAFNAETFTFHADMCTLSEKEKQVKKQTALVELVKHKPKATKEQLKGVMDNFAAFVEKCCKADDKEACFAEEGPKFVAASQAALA
Briefly: Biacore affinity for albumin of various species: cynomolgus (Example 7). In kind it is binding, 필리핀 원숭이. The following applies: range stated over all five species.

In the next series the target is T4, RSA (Rattus norvegicus, UniProt P02770).
T4 construct: purchased Sigma-Aldrich A6272
T4 sequence (P02770 25-608): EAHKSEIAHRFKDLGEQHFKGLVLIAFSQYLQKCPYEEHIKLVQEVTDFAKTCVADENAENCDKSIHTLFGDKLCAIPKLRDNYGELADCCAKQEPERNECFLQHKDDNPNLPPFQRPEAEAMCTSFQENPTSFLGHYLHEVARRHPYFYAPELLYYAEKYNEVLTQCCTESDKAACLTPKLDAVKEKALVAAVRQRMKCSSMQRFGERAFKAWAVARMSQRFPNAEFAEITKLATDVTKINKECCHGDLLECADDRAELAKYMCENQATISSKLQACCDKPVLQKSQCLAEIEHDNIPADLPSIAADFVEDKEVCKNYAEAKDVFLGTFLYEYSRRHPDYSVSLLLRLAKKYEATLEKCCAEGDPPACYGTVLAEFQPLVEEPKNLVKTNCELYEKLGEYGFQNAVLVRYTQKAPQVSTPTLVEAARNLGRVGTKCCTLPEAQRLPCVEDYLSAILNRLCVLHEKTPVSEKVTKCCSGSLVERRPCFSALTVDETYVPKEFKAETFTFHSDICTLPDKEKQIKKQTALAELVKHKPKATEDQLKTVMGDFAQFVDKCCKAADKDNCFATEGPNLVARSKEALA
Briefly: Biacore affinity for albumin of various species: rat (Example 7). The following applies: range stated over all five species. In kind it is binding, 랫트.

In the next series the target is T5, MSA (Mus musculus, UniProt P07724).
T5 construct: purchased Sigma-Aldrich A3559
T5 sequence (P07724 25-608): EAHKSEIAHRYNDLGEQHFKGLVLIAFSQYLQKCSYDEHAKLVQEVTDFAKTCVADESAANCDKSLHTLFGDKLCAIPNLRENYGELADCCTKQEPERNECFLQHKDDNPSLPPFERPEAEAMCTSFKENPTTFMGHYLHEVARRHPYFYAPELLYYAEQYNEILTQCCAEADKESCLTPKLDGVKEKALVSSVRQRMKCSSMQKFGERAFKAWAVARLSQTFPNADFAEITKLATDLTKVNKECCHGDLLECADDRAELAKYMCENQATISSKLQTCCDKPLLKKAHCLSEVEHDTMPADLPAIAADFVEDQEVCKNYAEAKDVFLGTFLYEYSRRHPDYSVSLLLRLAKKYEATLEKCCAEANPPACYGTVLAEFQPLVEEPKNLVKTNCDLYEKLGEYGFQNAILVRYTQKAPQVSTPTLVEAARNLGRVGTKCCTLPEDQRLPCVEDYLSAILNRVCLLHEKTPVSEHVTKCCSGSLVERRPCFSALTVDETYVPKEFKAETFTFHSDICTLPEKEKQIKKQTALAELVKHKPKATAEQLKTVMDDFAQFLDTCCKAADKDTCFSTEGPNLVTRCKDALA
The series can be described thus: Biacore affinity for albumin of various species: mouse (Example 7). The following applies: range stated over all five species. It counts as binding, 마우스.

For another series, the target named is T6, HSA (Homo sapiens, UniProt P02768).
T6 construct: purchased Novozymes
The series can be described thus: Stability to heat and low pH, biosensor analysis of HSA binding (Example 10). In kind it is physicochemical, 인간. As to conditions: 90℃, 10 min, pH 4.0.

Series [2] is described as follows: Stability to heat, CD analysis of structural reversibility (Example 10). In kind it is physicochemical.
Series [3] is described as follows: Small animal PET, whole-body distribution of 68Ga-labelled polypeptide (Example 11). In kind it is in vivo, 랫트. As to conditions: after i.v. injection, […] scan.
Series [4] is described as follows: Melting temperature (Tm) by circular dichroism, variable temperature (Example 3). It counts as physicochemical. The following applies: higher Tm with N-terminal serine. (In general: CD spectra are sensitive to the conformation of chiral molecules.)
For series [5], the target named is T1, 인간 혈청 알부민(HSA). Briefly: Biacore (SPR) affinity for immobilised HSA (Example 2). It counts as binding. The following applies: as in Example 2; data not shown.

Where no end group is shown, it is not given here.

Turning to `CC[C@H](C)[C@H](NC(=O)[C@H](C)NC(=O)[C@H](CC(=O)O)NC(=O)[C@H](CCCCN)NC(=O)[C@H](CC(C)C)NC(=O)[C@H](C)NC(=O)[C@H](CCC(=O)O)NC(=O)[C@@H](NC(=O)CNC(=O)[C@H](CCC(=O)O)NC(=O)[C@@H](NC(=O)[C@@H](NC(=O)[C@H](CCCCN)NC(=O)[C@H](C)NC(=O)[C@H](CCCCN)NC(=O)[C@H](CC(=O)O)NC(=O)[C@@H](NC(=O)[C@H](CC(C)C)NC(=O)[C@H](CCCNC(=N)N)NC(=O)[C@H](CCCCN)NC(=O)[C@H](Cc1ccc(O)cc1)NC(=O)[C@H](Cc1ccccc1)NC(=O)[C@H](CC(=O)O)NC(=O)[C@H](CO)NC(=O)[C@@H](NC(=O)CNC(=O)[C@H](Cc1ccc(O)cc1)NC(=O)[C@H](CSC1CC(=O)N(CCNC(=O)CN2CCN(CC(=O)O)CCN(CC(=O)O)CCN(CC(=O)O)CC2)C1=O)NC(=O)[C@H](CC(=O)O)NC(=O)[C@H](CC(C)C)NC(=O)[C@H](CCC(=O)O)NC(=O)[C@H](C)NC(=O)[C@H](CC(N)=O)NC(=O)[C@H](C)NC(=O)[C@H](C)NC(=O)[C@H](CCC(=O)O)NC(=O)[C@H](CCCCN)NC(=O)[C@H](C)NC(=O)[C@H](CO)NC(=O)[C@H](C)NC(=O)[C@H](CC(C)C)NC(=O)CN)C(C)C)[C@@H](C)CC)[C@@H](C)O)C(C)C)C(C)C)C(=O)N[C@@H](CC(C)C)C(=O)N[C@@H](C)C(=O)N[C@@H](C)C(=O)N[C@@H](CC(C)C)C(=O)N1CCC[C@H]1C(=O)O` (some centres unmarked) [PEP07968], in the series with 인간 혈청 함유 IgG, the “Reactivity with human serum IgG (mean OD and proportion of sera binding)” value was “가장 낮은 반응도”. Moreover, in the series on CD3+ CD4+ T 세포, the Immunogenicity classification entry is on record as “비-면역원성” and the “Number of responding individuals compared with buffer only” value was 1 명.

Consider “PEP08296: DOTA-conjugated PEP08185 (SEQ ID NO:148) (GSLAEAKEAANAELDCYGVSDFYKRLIDKAKTVEGVEALKDAILAALPG; also: DOTA conjugate, place not given here)”, for which the “Rank order of relative affinity for albumins of the species” value in the series with 인간 혈청 알부민(HSA) [1] (HSA, CSA, RSA, MSA, DSA) is “RSA ≥ HSA/CSA > MSA/DSA”. The “Affinity (KD) compared with PEP06923” value with 인간 혈청 알부민(HSA) [1] (albumins of the tested species, same order of magnitude) is on record as “같거나 약간 낮다”. Besides, in the series with 인간 혈청 알부민(HSA) [1] (range stated over all five species), the “KD for HSA” value was “높은 친화성(KD가 피코몰 미만으로부터 나노몰 미만까지의 범위에 속함)”. For the same molecule, the “KD for DSA” value with DSA is given as “높은 친화성(KD가 피코몰 미만으로부터 나노몰 미만까지의 범위에 속함)”. The “KD for CSA” value with CSA is listed as “높은 친화성(KD가 피코몰 미만으로부터 나노몰 미만까지의 범위에 속함)”. Besides, in the series with RSA, the “KD for RSA” value is “높은 친화성(KD가 피코몰 미만으로부터 나노몰 미만까지의 범위에 속함)”. Also, the “KD for MSA” value in the series with MSA is listed as “높은 친화성(KD가 피코몰 미만으로부터 나노몰 미만까지의 범위에 속함)”. In addition, the “HSA binding capacity after heat treatment” value with HSA was “약간 떨어뜨렸다”. The “Alpha helix content after heat treatment, pH 4.0” value in series [2] (90℃, 12 min, PBS pH 4.0) is listed as “약간 감소”. Also, in series [2] (90℃, 12 min, PBS pH 7.2), the “Alpha helix content after heat treatment, pH 7.2” value was “어떠한 변화도 없었다”. In series [2] (temperature gradient 20-90℃, pH 4 or pH 7.2 buffer), the “Effect of short heating to 90℃ on structure (CD spectra before/after)” value was “전혀 영향을 미치지 않았다”.

Regarding “68Ga-PEP08296: 68Ga-labelled PEP08296 (DOTA-conjugated PEP08185, SEQ ID NO:148) (GSLAEAKEAANAELDCYGVSDFYKRLIDKAKTVEGVEALKDAILAALPG; also: DOTA chelator conjugated, place not given here, 68Ga label)”, the Plasma clearance entry in series [3] is “매우 느린”.

“PEP07554: albumin binding polypeptide variant, SEQ ID NO:156 (GSS + PP007 sequence) (GSSLASAKEAANAELDSYGVSDFYKRLIDKAKTVEGVEALKDAILAALP; Engineered albumin-binding polypeptide)”: in series [4], the “Tm difference, N-terminal serine vs glycine at the same position (PEP07554 vs PEP07912)” value came to 5 °C.

With “PEP07975: maleimide-DOTA-conjugated PEP07834 (SEQ ID NO:160), C-terminal amide, chemically synthesised (ALASAKEAANAELDCYGVSDFYKRLIDKAKTVEGVEALKDAILAALP-NH2; also: maleimide-DOTA conjugate, place not given here)”, the “Binding activity to HSA” value with 인간 혈청 알부민(HSA) [5] was “확인하였으며”.

Values taken from patent KR20130034043A, “폴리펩타이드” (애피바디 에이비, priority 2010, dated 2013).
